Experimental data reported in patent US20040058870A1 (Bayer, published 2004).
Where two headings read alike, the source gives them in different places. Ends that are not written are not given here.

How the values were obtained:
Assay in all cases: cell-based or functional assay
VPAC2 receptor [1] = molecular target: T1, VPAC2 receptor (human, UniProt P41587 24-438)
T1 sequence (looked up): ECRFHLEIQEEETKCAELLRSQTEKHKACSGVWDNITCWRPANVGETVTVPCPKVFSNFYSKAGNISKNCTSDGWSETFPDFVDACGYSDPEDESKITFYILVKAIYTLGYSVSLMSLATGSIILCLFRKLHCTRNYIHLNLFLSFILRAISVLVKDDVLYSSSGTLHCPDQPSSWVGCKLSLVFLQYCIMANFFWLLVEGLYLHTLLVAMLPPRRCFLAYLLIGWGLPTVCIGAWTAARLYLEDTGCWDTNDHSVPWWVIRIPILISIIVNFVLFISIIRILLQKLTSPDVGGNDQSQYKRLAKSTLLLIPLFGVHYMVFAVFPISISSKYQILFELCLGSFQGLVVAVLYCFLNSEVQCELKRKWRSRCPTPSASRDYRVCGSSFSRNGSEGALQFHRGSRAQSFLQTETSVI

VPAC1 receptor = molecular target: T2, VPAC1 receptor (UniProt P32241 31-457, limits assumed)
T2 sequence (looked up): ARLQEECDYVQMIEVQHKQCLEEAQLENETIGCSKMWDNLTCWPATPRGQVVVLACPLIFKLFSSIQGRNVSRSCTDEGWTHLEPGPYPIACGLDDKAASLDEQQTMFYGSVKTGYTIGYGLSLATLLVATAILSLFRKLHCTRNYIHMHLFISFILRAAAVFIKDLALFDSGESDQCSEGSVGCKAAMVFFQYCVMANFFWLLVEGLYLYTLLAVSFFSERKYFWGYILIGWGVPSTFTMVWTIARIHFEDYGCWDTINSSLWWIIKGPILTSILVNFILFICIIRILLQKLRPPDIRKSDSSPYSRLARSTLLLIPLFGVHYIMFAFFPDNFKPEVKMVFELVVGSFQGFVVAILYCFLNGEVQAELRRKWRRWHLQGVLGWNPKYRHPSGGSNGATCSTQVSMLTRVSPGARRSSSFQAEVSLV

VPAC2 receptor [2] = molecular target: T1, VPAC2 receptor; remark: listed apart in the source
VPAC2 receptor [3] = molecular target: T1, VPAC2 receptor; remark: listed apart in the source

| Molecule | EC50 (nM), cAMP SPA (VPAC2 receptor [1]) [nM] | EC50 (nM), cAMP SPA (VPAC1 receptor) [nM] | EC50 (nM), cAMP SPA (VPAC2 receptor [2]) [nM] | maximal level of receptor activation relative to PACAP-27, cAMP SPA (VPAC2 receptor [3]) [%] |
| --- | --- | --- | --- | --- |
| PACAP-27 (from UniProt P18509 132-158) (peptide) | 0.09 | – | – | – |
| HSDAVFTDQYTRLRKQVAAKKYLQSIKQKRYC (ends and bridges not checked) [P12] | – | > 1000 | – | – |
| HSDAVFTDQYTRLRKQVAAKKYLQSIKQKRYC (22 kD PEG on the C-terminal Cys via maleimide (thioether) linkage) [P12 plus 22 kD PEG] | – | > 1000 | – | – |
| HSDAVFTDQYTRLRKQVAAKKYLQSIKQKRYC (43 kD PEG on the C-terminal Cys via maleimide (thioether) linkage) [P12 plus 43 kD PEG] | – | > 1000 | – | – |
| Ac-HTDAVFTDQYTRLRKQVAAKKYLQSIKQKRY (ends and bridges not checked) [P8] | – | 130 | 0.19 | 100 |
| HTEAVFTDQYTRLRKQVAAKKYLQSIKQKRY [P7] | – | > 1000 | 7.81 | 100 |
| HSDAVFTDQYTRLRKQVAAKKYLQSIKQKRY [P5] | – | 232 | – | – |
